Experiments:
[1] = target: HIV-1 AD8 gp41 (wild type), cut from Env gp160 (HIV-1 AD8)
[2] = target: HIV-1 AD8 gp41 K601N (HIV-1 AD8)
[3] = target: HIV-1 AD8 gp41 K601D (HIV-1 AD8); test: gp120 shedding assay (radioimmunoprecipitation of cell lysates and culture supernatants); 293T cells transfected with Env vectors, 35S pulse 45 min, chase 5-6 h; cell lysates and clarified supernatants immunoprecipitated with IgG14 and protein G Sepharose; reducing SDS-PAGE, phosphorimager; gp120-shedding index against WT
[4] = target: HIV-1 AD8 gp41 K601N (HIV-1 AD8); test: as above
[5] = target: HIV-1 AD8 gp41 (wild type), cut from Env gp160; test: radioimmunoprecipitation with HIVIG of metabolically labelled cell lysates and supernatants, SDS-PAGE, phosphorimager scanning

Sequence of C34, HR2-based fusion inhibitor peptide (P03375 628-661): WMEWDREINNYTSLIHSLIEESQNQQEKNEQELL

Row | Substance | other: gp120-shedding index [5] | also measured
1 | C34, HR2-based fusion inhibitor peptide | – | IC50 of C34 for inhibition of cell-cell fusion by WT Env (luciferase) [1]: 100 nM; IC50 of C34 for inhibition of cell-cell fusion by ΔN139INN/K601N Env (luciferase) [2]: 100 nM
2 | HIV-1 AD8 gp120 (wild type), cut from Env gp160 (natural protein) | – | gp120 shedding, fold with respect to WT [3]: 6.8 fold; gp120 shedding, fold with respect to WT [4]: 4.4 fold
3 | HIV-1 AD8 gp120 (wild type), cut from Env gp160 N160Q | 0.7 | –
4 | HIV-1 AD8 gp120 (wild type), cut from Env gp160 S143N | 0.6 | –
5 | HIV-1 AD8 gp120 (wild type), cut from Env gp160 S144N | 0.6 | –
6 | HIV-1 AD8 gp120 (wild type), cut from Env gp160 S158N | 3.6 | –
7 | HIV-1 AD8 gp120 (wild type), cut from Env gp160 S188N | 1.6 | –
8 | HIV-1 AD8 gp120 (wild type), cut from Env gp160 T138N | 0.5 | –
9 | HIV-1 AD8 gp120 T138N (natural protein) | – | gp120-gp41 association, fold improvement with respect to K601D [3]: 2 fold
